# “And” between values parts separate entries of the source, which are not always exact repeats. Identical values can stand only once.
# B1: Gamma-crystallin B, P02526 (parent)
# chain: MGKITFYEDRGFQGHCYECSSDCPNLQPYFSRCNSIRVDSGCWMLYERPNYQGHQYFLRRGDYPDYQQWMGFNDSIRSCRLIPQHTGTFRMRIYERDDFRGQMSEITDDCPSLQDRFHLTEVHSLNVLEGSWVLYEMPSYRGRQYLLRPGEYRRYLDWGAMNAKVGSLRRVMDFY
# Variants of: B1
# Details: Bos taurus; pH 2; 20 °C; Urea; Fluorescence; NaCl-HCl 100 mM; reversible: yes; structure 4GCR; whole UniProt chain shown
row,Variant,denaturant midpoint (higher = more stable)
1,F57W,1.5 M and 4.2 M

# Source: FireProtDB (doi:10.1002/pro.5560060717)
